Results on 31 molecules are retold here after EP4578875A1.

Positions count from the first letter of the chain named. Numbers in names are those of the source.

Sequences and labels used below:
B1: anti-CD3 antibody mutant VH-M34C (antibody, V domains shown)
VH: EVQLVESGGGLVQPGGSLRLSCAASGFTFSTYACNWVRQAPGKGLEWVGRIRSKYNNYATYYADSVKDRFTISRDDSKNSLYLQMNSLKTEDTAVYYCARHGNFGNSYVSWFAYWGQGTLVTVSS
VL: QTVVTQEPSLTVSPGGTVTLTCRSSTGAVTTSNYANWVQQKPGQAPRGLIGGTNKRAPGVPARFSGSLLGDKAALTLLGAQPEDEAEYFCALWYSNLWVFGGGTKLTVL
B2: anti-CD3 antibody mutant VL-K55C (antibody, V domains shown)
VH: B1 VH with C34M
VL: B1 VL with K55C
B3: anti-CD3 antibody mutant VH-Y61C (antibody, V domains shown)
VH: B1 VH with C34M, Y61C
VL: B1 VL
B4: anti-CD3 antibody mutant VL-W93C (antibody, V domains shown)
VH: B1 VH with C34M
VL: B1 VL with W93C
B5: anti-CD3 antibody mutant VL-Y34C (antibody, V domains shown)
VH: B1 VH with C34M
VL: B1 VL with Y34C
B6: anti-CD3 antibody mutant VH-F104C (antibody, V domains shown)
VH: B1 VH with C34M, F104C
VL: B1 VL
B7: anti-CD3 antibody mutant VL-N96C (antibody, V domains shown)
VH: B1 VH with C34M
VL: B1 VL with N96C
B8: anti-CD3 antibody mutant VH-S53C (antibody, V domains shown)
VH: B1 VH with C34M, S53C
VL: B1 VL
B9: anti-CD3 antibody mutant VH-W111C (antibody, V domains shown)
VH: B1 VH with C34M, W111C
VL: B1 VL
B10: anti-CD3 antibody mutant VL-Y94C (antibody, V domains shown)
VH: B1 VH with C34M
VL: B1 VL with Y94C
B11: anti-CD3 antibody mutant VL-N54C (antibody, V domains shown)
VH: B1 VH with C34M
VL: B1 VL with N54C
B12: anti-CD3 antibody mutant VL-R56C (antibody, V domains shown)
VH: B1 VH with C34M
VL: B1 VL with R56C
B13: anti-CD3 antibody mutant VL-Y94C conjugated with Molecule I (+20K) (antibody, V domains shown)
VH: B1 VH with C34M
VL: B1 VL with Y94C
modifications: Molecule I (+20K, shown only as a drawing) conjugated on Cys 94
B14: anti-CD3 antibody mutant VH-Y61C conjugated with Molecule I (+20K) (antibody, V domains shown)
VH: B1 VH with C34M, Y61C
VL: B1 VL
modifications: Molecule I (+20K; cleavable linker with PEG20K, shown only as a drawing) conjugated on Cys 61
B15: anti-CD3 antibody mutant VH-S53C conjugated with Molecule I (+20K) (antibody, V domains shown)
VH: B1 VH with C34M, S53C
VL: B1 VL
modifications: Molecule I (+20K, shown only as a drawing) conjugated on Cys 53
B16: anti-CD3 antibody mutant VH-M34C conjugated with Molecule I (+20K) (antibody, V domains shown)
VH: B1 VH
VL: B1 VL
modifications: Molecule I (+20K, shown only as a drawing) conjugated on Cys 34
B17: anti-CD3 antibody mutant VL-N54C conjugated with Molecule I (+20K) (antibody, V domains shown)
VH: B1 VH with C34M
VL: B1 VL with N54C
modifications: Molecule I (+20K, shown only as a drawing) conjugated on Cys 54
B18: anti-CD3 antibody mutant VH-F104C conjugated with Molecule I (+20K) (antibody, V domains shown)
VH: B1 VH with C34M, F104C
VL: B1 VL
modifications: Molecule I (+20K, shown only as a drawing) conjugated on Cys 104
B19: anti-CD3 antibody mutant VH-W111C conjugated with Molecule I (+20K) (antibody, V domains shown)
VH: B1 VH with C34M, W111C
VL: B1 VL
modifications: Molecule I (+20K, shown only as a drawing) conjugated on Cys 111
B20: anti-CD3 antibody mutant VL-K55C conjugated with Molecule I (+20K) (antibody, V domains shown)
VH: B1 VH with C34M
VL: B1 VL with K55C
modifications: Molecule I (+20K, shown only as a drawing) conjugated on Cys 55
B21: anti-CD3 antibody mutant VL-R56C conjugated with Molecule I (+20K) (antibody, V domains shown)
VH: B1 VH with C34M
VL: B1 VL with R56C
modifications: Molecule I (+20K, shown only as a drawing) conjugated on Cys 56
B22: anti-CD3 antibody mutant VL-N96C conjugated with Molecule I (+20K) (antibody, V domains shown)
VH: B1 VH with C34M
VL: B1 VL with N96C
modifications: Molecule I (+20K, shown only as a drawing) conjugated on Cys 96
B23: anti-CD3 antibody mutant VL-W93C conjugated with Molecule I (+20K) (antibody, V domains shown)
VH: B1 VH with C34M
VL: B1 VL with W93C
modifications: Molecule I (+20K, shown only as a drawing) conjugated on Cys 93
B24: anti-CD3 antibody mutant VL-Y34C conjugated with Molecule I (+20K) (antibody, V domains shown)
VH: B1 VH with C34M
VL: B1 VL with Y34C
modifications: Molecule I (+20K, shown only as a drawing) conjugated on Cys 34
B25: anti-CD3 VH-Y61C mutant conjugated with cleavable linker and R1 = PEG40K (antibody, V domains shown)
VH: B1 VH with C34M, Y61C
VL: B1 VL
modifications: cleavable linker peptide P with blocker PEG40K on Cys 61
B26: anti-CD3 VH-Y61C mutant conjugated with cleavable linker and R1 = PEG10K (antibody, V domains shown)
VH: B1 VH with C34M, Y61C
VL: B1 VL
modifications: cleavable linker peptide P with blocker PEG10K on Cys 61
B27: anti-CD3 VH-Y61C mutant conjugated with cleavable linker and R1 = PEG5K (antibody, V domains shown)
VH: B1 VH with C34M, Y61C
VL: B1 VL
modifications: cleavable linker peptide P with blocker PEG5K on Cys 61
B28: anti-CD3 VH-Y61C mutant conjugated with PEG40K, after activation (antibody, V domains shown)
VH: B1 VH with C34M, Y61C
VL: B1 VL
modifications: Cys 61 with what is left of the linker after activation (PEG40K blocker released); structure not given
B29: anti-CD3 VH-Y61C mutant conjugated with PEG20K, after activation (antibody, V domains shown)
VH: B1 VH with C34M, Y61C
VL: B1 VL
modifications: Cys 61 with what is left of the linker after activation (PEG20K blocker released); structure not given
B30: anti-CD3 VH-Y61C mutant conjugated with PEG5K, after activation (antibody, V domains shown)
VH: B1 VH with C34M, Y61C
VL: B1 VL
modifications: Cys 61 with what is left of the linker after activation (PEG5K blocker released); structure not given
B31: anti-CD3 VH-Y61C mutant conjugated with PEG10K, after activation (antibody, V domains shown)
VH: B1 VH with C34M, Y61C
VL: B1 VL
modifications: Cys 61 with what is left of the linker after activation (PEG10K blocker released); structure not given

The first assay deals with CD3 (antibody antigen coated on the ELISA plate in Examples 1 to 3) (Homo sapiens (Human)) (UniProt P07766). Put plainly: ELISA, antigen coated, anti-human IgG-HRP; against wild-type anti-CD3 antibody.
Sequence of CD3 (antibody antigen coated on the ELISA plate in Examples 1 to 3) (Homo sapiens (Human)) (P07766 23-126 limits assumed): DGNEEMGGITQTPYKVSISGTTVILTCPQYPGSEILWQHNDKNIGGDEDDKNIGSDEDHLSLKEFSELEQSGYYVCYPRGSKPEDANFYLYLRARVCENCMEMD
B1 yielded a Binding strength of mutants (EC50 mutant/EC50 wild-type) of 1.1.
In the case of B2, the Binding strength of mutants (EC50 mutant/EC50 wild-type) was 0.9.
Take B3: the Binding strength of mutants (EC50 mutant/EC50 wild-type) stood at 5.1.
B4: the Binding strength of mutants (EC50 mutant/EC50 wild-type) was 1.8.
In turn, B5 yielded a Binding strength of mutants (EC50 mutant/EC50 wild-type) of 1.2.
B6 returned a Binding strength of mutants (EC50 mutant/EC50 wild-type) of 1.
In turn, B7 returned a Binding strength of mutants (EC50 mutant/EC50 wild-type) of 1.
The molecule B8 came in with a Binding strength of mutants (EC50 mutant/EC50 wild-type) of 1.2.
With B9, the Binding strength of mutants (EC50 mutant/EC50 wild-type) worked out at 2.
Still for that read-out and setting: in the case of B10 it was 1; in that of B11, 1; in that of B12, 1.5.

For a further assay the target is unchanged. The experiment in a line: binding activity of the conjugated mutant compared with the wild-type antibody (ELISA as in Example 1).
As to B13, the Blocking fold after conjugation (+20K) came out at 30 fold.
B14 showed a Blocking fold after conjugation (+20K) of 400 fold.
Same read-out and setting: as for B15, the figure is 3 fold; as for B16, 5 fold.
B17 registered a Blocking fold after conjugation (+20K) of 12 fold.
Same read-out and setting: in the case of B18 it was 13 fold; in that of B19, 6 fold.
Molecule B20 showed a Blocking fold after conjugation (+20K) of 5 fold.
Same read-out and setting: in the case of B21 it was 6 fold; in that of B22, 2 fold; in that of B23, 5 fold.
Regarding B24, the Blocking fold after conjugation (+20K) amounted to 8 fold.

The target is the same in a further assay. The experiment in a line: binding activity after conjugation with different R1; method not described.
For the molecule B14, the Blocking fold after conjugation worked out at 400 fold.
Molecule B25 came in with a Blocking fold after conjugation of 500 fold.
In the case of B26, the Blocking fold after conjugation was 20 fold.
Consider B27, for which the Blocking fold after conjugation is 10 fold.

For the next assay the target is unchanged. Put plainly: binding activity after activation of the conjugate; method not described.
B28 displayed a Recovery of binding force after activation (%) of 100%.
Take B29: the Recovery of binding force after activation (%) was determined as 100%.
Consider B30, for which the Recovery of binding force after activation (%) stood at 100%.
The same measure, in the same setting: in the case of B31 it was 100%.
